Reference: patent US20040136985A1, “Methods of modifying behavior of CD9-expressing cells” (priority 2002, published 2004)
“And” between values parts separate entries of the source, which are not always exact repeats. Identical values can stand only once. Values belong to the substance of their own block, whether it stands above or below them.

Experiments:
[1] = target: hamster integrin subunit β1 on CHO cells (hamster); test: flow cytometry, CD9-CHO-B2 cells
[2] = target: hamster integrin subunit β1 on CHO cells (hamster); test: flow cytometry, CD9-CHO-K1 cells
[3] = target: hamster integrin subunit β1 on CHO cells (hamster); test: flow cytometry, MOCK-CHO-K1 cells
[4] = target: hamster integrin subunit β1 on CHO cells (hamster); test: flow cytometry, MOCK-CHO-B2 cells
[5] = target: hamster integrin α5β1 on CHO cells (hamster); test: flow cytometry, CD9-CHO-K1 cells
[6] = target: hamster integrin α5β1 on CHO cells (hamster); test: flow cytometry, MOCK-CHO-K1 cells
[7] = target: purified platelet CD9 (human) (UniProt P21926); test: ELISA, FN titrated on immobilized platelet CD9, 2.5 mM CaCl2
peptide 6 (human) = test: ELISA, FN 75 µg/ml on immobilized peptide (10 µM coat)
peptide 5 (human) = test: as above
His6-rCD9 (human) [8] = target: His6-rCD9 (human) (UniProt P21926); test: ELISA, FN titrated on immobilized His6-rCD9, 2.5 mM Ca2+
His6-rCD9 (human) [9] = target: His6-rCD9 (human) (UniProt P21926); test: ELISA, absolute values, FN on immobilized His6-rCD9

human plasma fibronectin, P02751 32-2296 (ligand), sequence (P02751 other isoform, or with tags, fused parts or gaps limits assumed): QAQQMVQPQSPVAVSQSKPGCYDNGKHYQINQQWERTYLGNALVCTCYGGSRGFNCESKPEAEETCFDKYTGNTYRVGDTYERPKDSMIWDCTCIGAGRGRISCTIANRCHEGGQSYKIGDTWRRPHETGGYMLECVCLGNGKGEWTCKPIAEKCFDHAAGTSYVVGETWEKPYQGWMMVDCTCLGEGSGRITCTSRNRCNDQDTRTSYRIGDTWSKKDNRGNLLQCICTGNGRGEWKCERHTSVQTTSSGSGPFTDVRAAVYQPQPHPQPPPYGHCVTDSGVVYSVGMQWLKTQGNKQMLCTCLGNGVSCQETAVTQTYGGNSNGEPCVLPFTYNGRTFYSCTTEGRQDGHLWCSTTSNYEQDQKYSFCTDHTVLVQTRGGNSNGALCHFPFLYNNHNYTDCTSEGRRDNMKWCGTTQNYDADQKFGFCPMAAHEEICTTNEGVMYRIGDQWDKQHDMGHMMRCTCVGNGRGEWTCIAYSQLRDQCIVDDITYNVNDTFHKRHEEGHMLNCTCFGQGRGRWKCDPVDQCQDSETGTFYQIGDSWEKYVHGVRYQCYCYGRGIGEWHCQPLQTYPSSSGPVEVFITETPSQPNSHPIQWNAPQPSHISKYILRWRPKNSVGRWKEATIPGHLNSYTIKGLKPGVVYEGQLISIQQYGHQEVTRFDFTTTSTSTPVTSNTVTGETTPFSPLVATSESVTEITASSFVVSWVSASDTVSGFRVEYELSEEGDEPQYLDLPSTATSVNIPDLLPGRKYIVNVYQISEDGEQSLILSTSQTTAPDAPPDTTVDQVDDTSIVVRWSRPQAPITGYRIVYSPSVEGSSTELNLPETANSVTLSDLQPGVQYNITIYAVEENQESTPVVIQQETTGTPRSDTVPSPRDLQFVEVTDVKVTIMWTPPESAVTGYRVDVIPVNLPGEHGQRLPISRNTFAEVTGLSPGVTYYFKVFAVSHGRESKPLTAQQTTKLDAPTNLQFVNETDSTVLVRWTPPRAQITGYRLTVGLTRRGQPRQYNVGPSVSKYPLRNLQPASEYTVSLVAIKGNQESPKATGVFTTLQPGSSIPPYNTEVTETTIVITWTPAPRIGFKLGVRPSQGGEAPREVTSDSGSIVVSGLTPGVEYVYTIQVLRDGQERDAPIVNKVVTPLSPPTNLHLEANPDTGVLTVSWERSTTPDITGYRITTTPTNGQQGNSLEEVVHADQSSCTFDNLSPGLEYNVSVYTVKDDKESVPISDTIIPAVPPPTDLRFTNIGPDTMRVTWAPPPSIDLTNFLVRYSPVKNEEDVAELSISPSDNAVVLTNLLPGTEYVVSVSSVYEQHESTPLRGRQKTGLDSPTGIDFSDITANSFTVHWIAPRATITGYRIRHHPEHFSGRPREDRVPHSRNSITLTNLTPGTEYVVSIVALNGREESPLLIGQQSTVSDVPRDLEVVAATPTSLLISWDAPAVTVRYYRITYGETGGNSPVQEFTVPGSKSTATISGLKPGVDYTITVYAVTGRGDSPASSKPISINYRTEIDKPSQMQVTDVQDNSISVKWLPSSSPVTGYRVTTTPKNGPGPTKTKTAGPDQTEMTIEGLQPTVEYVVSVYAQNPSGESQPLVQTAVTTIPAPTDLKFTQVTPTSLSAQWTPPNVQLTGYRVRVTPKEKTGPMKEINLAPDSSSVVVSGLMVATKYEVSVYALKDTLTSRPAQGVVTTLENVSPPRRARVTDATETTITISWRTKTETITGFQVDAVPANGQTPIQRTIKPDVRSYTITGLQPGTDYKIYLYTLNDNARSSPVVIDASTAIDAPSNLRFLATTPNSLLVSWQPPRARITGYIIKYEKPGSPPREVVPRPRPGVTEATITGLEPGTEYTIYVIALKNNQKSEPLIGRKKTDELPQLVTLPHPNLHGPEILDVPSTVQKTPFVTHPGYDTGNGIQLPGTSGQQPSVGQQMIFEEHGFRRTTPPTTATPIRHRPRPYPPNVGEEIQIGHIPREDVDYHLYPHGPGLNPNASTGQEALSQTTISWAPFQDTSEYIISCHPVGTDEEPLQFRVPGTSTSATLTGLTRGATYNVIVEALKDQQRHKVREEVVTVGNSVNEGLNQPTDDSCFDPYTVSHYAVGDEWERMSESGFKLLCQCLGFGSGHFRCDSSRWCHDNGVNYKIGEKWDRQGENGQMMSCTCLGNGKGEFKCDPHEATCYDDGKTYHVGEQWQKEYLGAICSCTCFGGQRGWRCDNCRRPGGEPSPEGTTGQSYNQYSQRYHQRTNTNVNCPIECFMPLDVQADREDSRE
His6-rCD9 (human), sequence (P21926 whole entry): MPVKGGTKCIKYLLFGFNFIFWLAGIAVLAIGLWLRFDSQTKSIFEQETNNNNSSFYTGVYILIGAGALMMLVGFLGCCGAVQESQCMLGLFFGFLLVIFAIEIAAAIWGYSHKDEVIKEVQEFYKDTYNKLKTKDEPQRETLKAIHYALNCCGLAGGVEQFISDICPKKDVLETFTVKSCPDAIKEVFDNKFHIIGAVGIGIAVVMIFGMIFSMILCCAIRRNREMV
purified platelet CD9 (human), sequence (P21926 2-228 limits assumed): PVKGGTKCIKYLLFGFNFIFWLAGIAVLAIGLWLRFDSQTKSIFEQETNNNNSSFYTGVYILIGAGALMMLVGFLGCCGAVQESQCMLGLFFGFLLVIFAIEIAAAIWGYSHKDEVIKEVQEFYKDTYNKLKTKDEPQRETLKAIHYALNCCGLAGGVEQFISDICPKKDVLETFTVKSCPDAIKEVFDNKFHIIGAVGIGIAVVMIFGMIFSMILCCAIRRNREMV
peptide 6 (human), sequence (chain, as listed by the source): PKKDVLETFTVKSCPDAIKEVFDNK
peptide 5 (human), sequence (chain, as listed by the source): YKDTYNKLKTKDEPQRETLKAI

% positive [1]: 100% | Fold-increase (over isotype control) (fold MFI over isotype control) [1]: 6 | % positive [2]: 97% | Fold-increase (over isotype control) (fold MFI over isotype control) [2]: 6 | % positive [3]: 100% | Fold-increase (over isotype control) (fold MFI over isotype control) [3]: 7 | % positive [4]: 100% | Fold-increase (over isotype control) (fold MFI over isotype control) [4]: 0
Substance: antibody 7E2

% positive [5]: 98% | Fold-increase (over isotype control) (fold MFI over isotype control) [5]: 4 | % positive [6]: 100% | Fold-increase (over isotype control) (fold MFI over isotype control) [6]: 4
Substance: antibody PB1

EC50 [7]: 35.6 µg/mL and 81 nM | binding relative to intact platelet purified CD9 (% of binding to platelet CD9) (peptide 6 (human)): 65 | binding relative to intact platelet purified CD9 (% of binding to platelet CD9) (peptide 5 (human)): 19 | EC50 (His6-rCD9 (human) [8]): 120 nM | ELISA binding against purified CD9 (% lower than purified CD9) (His6-rCD9 (human) [9]): 40
Substance: human plasma fibronectin, P02751 32-2296 (ligand)
